Where no end group is shown, it is not given here.
How the values were obtained:
KTN1(991–1357) [1] = biological target: T1, KTN1(991–1357) (human, UniProt Q86UP2 991-1357); assay: SEC
T1 sequence (looked up): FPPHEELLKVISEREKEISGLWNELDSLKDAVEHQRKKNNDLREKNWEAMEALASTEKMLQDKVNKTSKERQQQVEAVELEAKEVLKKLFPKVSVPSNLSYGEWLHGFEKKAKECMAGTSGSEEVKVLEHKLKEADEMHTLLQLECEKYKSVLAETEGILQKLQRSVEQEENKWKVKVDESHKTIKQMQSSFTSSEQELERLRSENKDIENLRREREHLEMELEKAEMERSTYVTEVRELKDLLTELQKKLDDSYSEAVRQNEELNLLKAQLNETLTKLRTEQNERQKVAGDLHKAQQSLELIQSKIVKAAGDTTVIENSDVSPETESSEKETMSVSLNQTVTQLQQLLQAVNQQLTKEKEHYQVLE

CDR2(1–146) = CDR2(1–146) (human, UniProt Q01850 1-146); assay: SEC
CDR2(1–146), sequence (Q01850 1-146): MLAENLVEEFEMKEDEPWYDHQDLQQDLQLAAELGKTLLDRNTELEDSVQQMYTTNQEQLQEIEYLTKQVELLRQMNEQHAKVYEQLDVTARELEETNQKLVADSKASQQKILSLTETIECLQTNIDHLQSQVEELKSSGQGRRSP

KTN1(991–1357) [2] = biological target: T1, KTN1(991–1357); assay: pull-down

Binder: EPVSSPTTPPEYKALFKEIFSCIKKTKQEIDEQRTKYRSLSSHS (domain or fragment, human, UniProt Q01850 411-454, looked up) [GST::CDR2(411–454)]
- binding result (KTN1(991–1357) [1]): binds

B1: GST::DLIC1(388–523) (domain or fragment, human, UniProt Q9Y6G9 388-523, looked up)
chain: PTAAGRPVDASPRVPGGSPRTPNRSVSSNVASVSPIPAGSKKIDPNMKAGATSEGVLANFFNSLLSKKTGSPGGPGVSGGSPAGGAGGGSSGLPPSTKKSGQKPVLDVHAELDRITRKPVTVSPTTPTSPTEGEAS
- binding result (CDR2(1–146)): binds

Binder: {GST}-NGPVAGASRQENGASVILRDIARARENIQKSLAGSSG (domain or fragment, human, UniProt P29692 30-66, looked up) [GST::eEF1Bβ(30–66)]
- binding result (KTN1(991–1357) [1]): binds

B2: GST::KIF5C(807–956) (domain or fragment)
chain: not shown
- binding result (KTN1(991–1357) [2]): binds

From article PMC11580933 (bioRxiv, 2024)
